Experimental findings from patent US20160097044A1, “Antimicrobial Enzyme Fusions Reduce Resistance and Kill Intracellular Staphylococcus aureus” (The United States of America, as Represented by the …, priority 2014, published 2016) are described below.

The subject of one assay is S. chromogenes MP02. In words: Minimum Inhibitory Concentration (MIC) assay. Type of assay: cell-based, Staphylococcus chromogenes. As to conditions: Mastitis isolate S. chromogenes MP02.
The test system of the next assay is S. aureus Newbould 305. The experiment in a line: Minimum Inhibitory Concentration (MIC) assay. Format: cell-based. As to conditions: Mastitis isolate S. aureus Newbould 305. As to the method:
(§1) The Minimum Inhibitory Concentrations (MIC) of each protein for multiple S. aureus strains was determined as previously described (Jones et al. 1985. In: Manual of Clinical Microbiology, Eds. Balows et al. American Society of Microbiology, Washington D.C., pp. 972-977) with the following modifications. Enzymes were serially diluted two fold across a 96 well plate, such that after dilution, 50 μl of the enzyme solution in 300 mM NaCl, 50 mM NaH2PO4, 30% glycerol pH 7.5, remained in each well. To each well was added 50 μl of TSB and 100 μl of S. aureus Newman in TSB (diluted to 5×10^6 cells/ml). The plates were incubated 20 h at 37° C. and read with a 96 well plate reader. MIC determination values were reported as the median of ≧4 replicates (Table 1).

The subject of the next assay is S. aureus Newman. The experiment in a line: Minimum Inhibitory Concentration (MIC) assay. Format: cell-based. As to conditions: for Minimum Inhibitory Conc. (median μg/ml): S. aureus Newman. How it is done:
as §1

The next assay relates to S. aureus ALR. In words: Minimum Inhibitory Concentration (MIC) assay. Format: cell-based. The conditions noted are these: for Minimum Inhibitory Conc. (median μg/ml): S. aureus ALR. How it is done: as §1
A further assay concerns S. hyicus MP01. In words: Minimum Inhibitory Concentration (MIC) assay. The conditions noted are these: Mastitis isolate S. hyicus MP01. Type of assay: cell-based, Staphylococcus hyicus.
The subject of another assay is S. aureus SA113 biofilms. The experiment in a line: Static biofilm reduction model. As to conditions: 1 h treatment, compared to buffer treated biofilms. Format: cell-based. How it is done: S. aureus SA113 biofilms were treated for 1 h with 100 μl of each enzyme individually or as equimolar mixtures of LysK and lysostaphin (white bars) in 300 mM NaCl, 50 mM NaH2PO4, 30% glycerol. Constructs are named as in FIG. 1a. Results are reported as the percentage reduction in biofilm compared to buffer treated biofilms. Data presented represents 4 replicates. Values represent means±[…]. Asterisks indicate significant differences (single factor ANOVA with t-test post hoc analysis Sidák correction) as compared to LysK (K) at that concentration. Adjusted alpha p<0.026. Peptidoglycan hydrolase constructs: lysostaphin (L), LysK (K), triple fusion K-L, and triple fusion (L-K), as named in FIG. 1a.
In the static biofilm reduction model, biofilms were produced as previously described (Gross et al. 2001. Infect. Immun. 69:3423-3426) with the following modifications. S. aureus strains were grown overnight in 5 ml TSB supplemented with 0.25% D(+)-glucose without shaking at 37° C. The culture was diluted 1/200 in fresh culture medium, and 200 μl was added to each well of a 96 well microtiter plate and incubated without shaking for 24 h at 37° C. Biofilms in the wells were washed twice with 200 μl SLB, treated with […] peptidoglycan hydrolase (Lysostaphin, LysK and the triple fusion proteins K-L and L-K) in SLB at concentrations indicated (FIG. 4) for 1 h at room temperature, and washed twice with 100 μl SLB. Adherent bacteria were fixed with 200 μl 95% ethanol-5% glacial acetic acid for 20 min, washed once with water, and stained with 100 μl 0.4% crystal violet for 15 min at room temperature. Excess stain was removed with 3 water washes. Bound stain was resolubilized in 33% acetic acid, and 20 μl was transferred to a 96 well plate containing 180 μl water. The OD590nm was determined in a Spectra Max plate reader. Percent reduction represents the difference in absorbance between biofilms exposed to buffer only and experimental wells that were exposed to the peptidoglycan hydrolases.
Static biofilms were created with S. aureus strain SA113 in 96 well dishes and treated for one hour with 100 μl of the indicated concentrations of each enzyme individually or as an equimolar mixture of LysK and lysostaphin.

Setting [1] is: first exposure of the resistance development experiment, FIG. 1b.
The mark [2] stands for this setting: first exposure, molar concentration in brackets.

Consider “K-L: both LysK lytic domains fused to the N-terminus of lysostaphin; SEQ ID NO:5, protein SEQ ID NO:6”, for which the “Minimum Inhibitory Conc. (median μg/ml)” value in the assay with S. chromogenes MP02 is 3.5 µg/mL; with S. aureus Newbould 305, 11 µg/mL; with S. aureus Newman, 7.0 µg/mL; in the assay on S. aureus ALR it was 7.0 µg/mL; in the assay on S. hyicus MP01 it was 1.8 µg/mL. In addition, the entries for the “First exposure MIC” value in the assay with S. aureus Newman (setting [1]) and with S. aureus Newman (setting [2]) were 7 µg/mL and 97 nM, respectively. Besides, in the assay with S. aureus SA113 biofilms, the “static biofilm reduction (in words)” value is reported as “effectively reduced staphylococcal biofilms”.

“L: 247 amino acid mature (secreted) lysostaphin, staphylolytic bacteriocin, C-terminal His6 tag; SEQ ID NO:1 [reference compound]”: the “Minimum Inhibitory Conc. (median μg/ml)” value in the assay with S. chromogenes MP02 turned out to be 0.58 µg/mL; in the assay with S. aureus Newbould 305 it was 12 µg/mL; in the assay with S. aureus Newman, 0.77 µg/mL; in the assay on S. aureus ALR it was 0.77 µg/mL; in the assay on S. hyicus MP01 it was 0.29 µg/mL. Besides, the “First exposure MIC” value in the assay with S. aureus Newman (setting [1]) turned out to be 0.77 µg/mL; with S. aureus Newman (setting [2]), 27 nM. Further, the “static biofilm reduction (in words)” value in the assay on S. aureus SA113 biofilms is given as “effectively reduced staphylococcal biofilms”.

B1: L-K: LysK lytic domains inserted between lysostaphin's M23 endopeptidase domain and SH3b cell wall binding domain; SEQ ID NO:7, protein SEQ ID NO:8 (protein)
chain: MAATHEHSAQWLNNYKKGYGYGPYPLGINGGMHYGVDFFMNIGTPVKAISSGKIVEAGWSNYGGGNQIGLIENDGVHRQWYMHLSKYNVKVGDYVKAGQIIGWSGSTGYSTAPHLHFQRMVNSFSNSTAQDPMPFLKSAGYGKAGGTVTPTPNTGLDAKTQAEINKRLDAYAKGTVDSPYRVKKATSYDPSFGVMEAGAIDADGYYHAQCQDLITDYVLWLTDNKVRTWGNAKDQIKQSYGTGFKIHENKPSTVPKKGWIAVFTSGSYEQWGHIGIVYDGGNTSTFTILEQNWNGYANKKPTKRVDNYYGLTHFIEIPVKAGTTVKKETAKKSASKTPAPKKKATLKVSKNHINYTMDKRGKKPEGMVIHNDAGRSSGQQYENSLANAGYARYANGIAHYYGSEGYVWEAIDAKNQIAWHTGDGTGANSGNFRFAGIEVCQSMSASDAQFLKNEQAVFQFTAEKFKEWGLTPNRKTVRLHMEFVPTACPHRSMVLHTGFNPVTQGRPSQAIMNKLKDYFIKQIKNYMDKGTSSSTVVKDGKTSSASLDTVTPTPNTGWKTNKYGTLYKSESASFTPNTDIITRTTGPFRSMPQSGVLKAGQTIHYDEVMKQDGHVWVGYTGNSGQRIYLPVRTWNKSTNTLGVLWGTIKLEHHHHHH
modifications: Staphylococcus simulans & Phage K
As to B1, the “Minimum Inhibitory Conc. (median μg/ml)” value in the assay on S. chromogenes MP02 amounted to 0.37 µg/mL; in the assay with S. aureus Newbould 305 it was 12 µg/mL; with S. aureus Newman, 7.8 µg/mL; in the assay with S. aureus ALR it was 4.4 µg/mL; with S. hyicus MP01, 0.37 µg/mL. In addition, the “First exposure MIC” value with S. aureus Newman (setting [1]) came to 7.8 µg/mL; with S. aureus Newman (setting [2]), 107 nM. In addition, in the assay with S. aureus ALR (N=8, value ± spread), the “MIC for S. aureus ALR (comparison for post-treatment isolates)” value amounted to 9.4 ± 6.1 µg/mL. The “static biofilm reduction (in words)” value in the assay on S. aureus SA113 biofilms is given as “effectively reduced staphylococcal biofilms”.

B2: K: 495 amino-acid staphylococcal phage K endolysin LysK, C-terminal His6 tag; SEQ ID NO:3 (protein)
chain: MAKTQAEINKRLDAYAKGTVDSPYRVKKATSYDPSFGVMEAGAIDADGYYHAQCQDLITDYVLWLTDNKVRTWGNAKDQIKQSYGTGFKIHENKPSTVPKKGWIAVFTSGSYEQWGHIGIVYDGGNTSTFTILEQNWNGYANKKPTKRVDNYYGLTHFIEIPVKAGTTVKKETAKKSASKTPAPKKKATLKVSKNHINYTMDKRGKKPEGMVIHNDAGRSSGQQYENSLANAGYARYANGIAHYYGSEGYVWEAIDAKNQIAWHTGDGTGANSGNFRFAGIEVCQSMSASDAQFLKNEQAVFQFTAEKFKEWGLTPNRKTVRLHMEFVPTACPHRSMVLHTGFNPVTQGRPSQAIMNKLKDYFIKQIKNYMDKGTSSSTVVKDGKTSSASTPATRPVTGSWKKNQYGTWYKPENATFVNGNQPIVTRIGSPFLNAPVGGNLPAGATIVYDEVCIQAGHIWIGYNAYNGNRVYCPVRTCQGVPPNQIPGVAWGVFKLEHHHHHH
modifications: C-terminal His6 tag; Phage K
As to B2, the “Minimum Inhibitory Conc. (median μg/ml)” value in the assay on S. chromogenes MP02 is 16 µg/mL; with S. aureus Newbould 305, 34 µg/mL; with S. aureus Newman, 47 µg/mL; in the assay on S. aureus ALR it was 34 µg/mL; in the assay on S. hyicus MP01, 8.4 µg/mL. Besides, the results for the “First exposure MIC” value in the assay on S. aureus Newman (setting [1]) and with S. aureus Newman (setting [2]) were 47 µg/mL and 840 nM, respectively. Further, the “static biofilm reduction (in words)” value with S. aureus SA113 biofilms is recorded as “effectively reduced staphylococcal biofilms”.
